According to article PMC4481513, “Structural and Functional Analysis of Human HtrA3 Protease and Its Subdomains” (PLoS ONE, 2015):
*1 amine or outer side, *2 acyl side, *3 side chain or, on linkers, in order; H or OH if unused. The star is where a group is joined. Benzoyl(5-NH,2-NO2) = O=C(c1cc(N[*:1])ccc1[N+](=O)[O-])[*:2]; Mca = COc1ccc2c(CC(=O)*)cc(=O)oc2c1

How the values were obtained:
[1] = biological target: β-casein from bovine milk (bovine); test: SEC; Superose 12 HR 10/30, room temperature, 50 mM Na2HPO4/NaH2PO4 pH 8.0, 250 mM NaCl; single proteins, HtrA3 proteins at 3 mg/ml, 50 μl loaded
[2] = biological target: the molecule itself; test: crystal structure; ΔN-HtrA3 S305A, sitting-drop vapor diffusion, 1 M sodium/potassium phosphate buffer pH 5.0, 16°C; three molecules per asymmetric unit; 3.27 Å
[3] = biological target: ΔN-HtrA3-ΔPDZ (residues His6–122–349), proteolytically active (human) (UniProt P83110)
[4] = biological target: ΔN-HtrA3 (residues 130–453–His6), proteolytically active (human) (UniProt P83110)
[5] = biological target: ΔN-HtrA3S (residues 130–357–His6), proteolytically active (human) (UniProt P83110)

Sequence of ΔN-HtrA3-ΔPDZ (residues His6–122–349), proteolytically active (human) (P83110 122-349, stated change not applied): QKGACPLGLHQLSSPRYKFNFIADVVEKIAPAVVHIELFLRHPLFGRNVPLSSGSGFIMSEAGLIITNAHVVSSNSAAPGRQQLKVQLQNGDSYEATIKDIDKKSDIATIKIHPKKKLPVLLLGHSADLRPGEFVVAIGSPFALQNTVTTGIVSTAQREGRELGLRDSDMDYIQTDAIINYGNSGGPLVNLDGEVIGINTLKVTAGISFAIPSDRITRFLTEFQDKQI

β-casein from bovine milk (natural protein)
stoichiometry N [1]: 3

B1: ΔN-HtrA3_(S305A) (residues 130–453–His6), proteolytically inactive N-terminally truncated HtrA3L with protease and PDZ domains (domain or fragment, human, UniProt P83110 130-453, looked up)
chain: LHQLSSPRYKFNFIADVVEKIAPAVVHIELFLRHPLFGRNVPLSSGSGFIMSEAGLIITNAHVVSSNSAAPGRQQLKVQLQNGDSYEATIKDIDKKSDIATIKIHPKKKLPVLLLGHSADLRPGEFVVAIGSPFALQNTVTTGIVSTAQREGRELGLRDSDMDYIQTDAIINYGNAGGPLVNLDGEVIGINTLKVTAGISFAIPSDRITRFLTEFQDKQIKDWKKRFIGIRMRTITPSLVDELKASNPDFPEVSSGIYVQEVAPNSPSQRGGIQDGDIIVKVNGRPLVDSSELQEAVLTESPLLLEVRRGNDDLLFSIAPEVVM
notes: human HtrA3 long isoform (HtrA3L), residues 130-453: serine protease domain and PDZ domain, catalytic serine changed to alanine; Chain A of the structure runs to residue 459, that is into the His tag; also called ΔN-HtrA3-His6; pPG1; source: E. coli BL21(DE3) clpP::Cm r, purified (Ni-NTA; before crystallization also Superdex 200 gel filtration); not shown: His6, C-terminal, kept
stoichiometry N [2]: 3

B2: Fluorescent substrate Ala(Mca)IRRVSYSF–ANB–NH2 (peptide)
peptide: Mca-AIRRVSYSF-{Benzoyl(5-NH,2-NO2)-NH2}
SMILES: CC[C@H](C)[C@H](NC(=O)[C@H](C)NC(=O)Cc1cc(=O)oc2cc(OC)ccc12)C(=O)N[C@@H](CCCNC(=N)N)C(=O)N[C@@H](CCCNC(=N)N)C(=O)N[C@H](C(=O)N[C@@H](CO)C(=O)N[C@@H](Cc1ccc(O)cc1)C(=O)N[C@@H](CO)C(=O)N[C@@H](Cc1ccccc1)C(=O)Nc1ccc([N+](=O)[O-])c(C(N)=O)c1)C(C)C
Km [μM] of cleavage of the peptide Ala(Mca)IRRVSYSF-ANB-NH2 (0.02 to 6 μM), 50 nM enzyme, 30°C, Michaelis-Menten fit [3]: 0.878 µM | Km [μM] of cleavage of the peptide Ala(Mca)IRRVSYSF-ANB-NH2 (0.02 to 6 μM), 50 nM enzyme, 30°C, Michaelis-Menten fit [4]: 0.958 µM | Km [μM] of cleavage of the peptide Ala(Mca)IRRVSYSF-ANB-NH2 (0.02 to 6 μM), 50 nM enzyme, 30°C, Michaelis-Menten fit [5]: 0.74 µM
